For three substances, anti-Xa activity [U/ml], chromogenic assay (FXa, substrate S2222) results are on record in patent US5312736.

In the experiment the target is factor Xa.

Sequence of Ser-(Thr88-Thr161)-EPI (chain): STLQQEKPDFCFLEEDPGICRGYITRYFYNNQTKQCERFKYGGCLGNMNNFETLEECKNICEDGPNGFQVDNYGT
Sequence of native extrinsic pathway inhibitor (EPI), entire EPI protein expressed from pCMVEPIhGH (chain): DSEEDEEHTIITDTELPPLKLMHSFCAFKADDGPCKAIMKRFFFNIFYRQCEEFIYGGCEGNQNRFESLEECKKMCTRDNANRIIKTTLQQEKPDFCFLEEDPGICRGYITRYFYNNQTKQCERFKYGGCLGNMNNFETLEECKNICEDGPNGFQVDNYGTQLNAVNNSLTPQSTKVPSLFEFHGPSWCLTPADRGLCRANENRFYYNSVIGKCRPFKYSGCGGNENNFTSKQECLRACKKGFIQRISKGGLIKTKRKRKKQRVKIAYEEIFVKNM
Sequence of Ser-(Glu15-Thr161)-EPI (chain): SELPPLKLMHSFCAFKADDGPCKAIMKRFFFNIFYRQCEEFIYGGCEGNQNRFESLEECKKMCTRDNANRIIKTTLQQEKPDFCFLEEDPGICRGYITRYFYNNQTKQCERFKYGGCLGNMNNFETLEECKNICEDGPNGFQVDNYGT

“native extrinsic pathway inhibitor (EPI), entire EPI protein expressed from pCMVEPIhGH” displayed an anti-Xa activity [U/ml], chromogenic assay (FXa, substrate S2222) of 7.6 U/ml. The substance Ser-(Glu15-Thr161)-EPI registered an anti-Xa activity [U/ml], chromogenic assay (FXa, substrate S2222) of 5.6 U/ml. For Ser-(Thr88-Thr161)-EPI, the anti-Xa activity [U/ml], chromogenic assay (FXa, substrate S2222) came to 0.15 U/ml.
